Test: yeast display, Sf9 membrane polyspecificity reagent, FACS + sequencing; frameworks hold sequencing errors
How it was run: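 Using colony PCR, genes from sorted yeast display clones were amplified, then sequenced on MiSeq at 2 × 250 and filtered by CDR length. The clones had been stained with 10% biotinylated, detergent-solubilized Sf9 membrane reagent for 1 hour at 4 °C and sorted by FACS into low and high (top ~1%) gates on anti-HA and streptavidin fluorescence. Polyreactivity labels come from the gate of origin.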

Sequence | polyreactivity (PSR sort gate)
QVQLVESGVALVQAGGSLRLSCAASGSILYPYAMGWYRQAPGKERELVAAITKTDGSTYYADSVKWRFTISRDNAKNTVYLQMNSLTPEDTAVYCCNAKWTLRWYFPYWSEYDYWGQGTQVTVSS | low polyreactivity
PVQLVESGGGLVQAGGSLRLSCAASGIIFVKYAMGWYRQAPGKERELVAAISTRGGSTYYADSVKGRFTISRDNAMNTVYLQMNSLKPEDTAVYYCAADATRKSQLPNTVPYDYWGQGTQVTVSS | high polyreactivity
QVQLVESGGGLVQAGGSLRLSCAASGRTFRGNVMGWYRQAPGKEREFVAAITKSDGSTYYADSVKGRFTISRDIAKNTVYLQMNSLNPEDTAVDYCAARTARTGWPWFRFDYWGQGTQVTVSS | low polyreactivity
QVQLLESGGGLVQAGGSLRLSCAASGSTFPRNAMGWYRQAPGKERELVATITSSGGGTYYADSVKGRFTISRDNAKNTVYLQMNSLKPEDTAVDYCNADGPAGDAFDYWGQGTQVTVSS | low polyreactivity
QVQLVESGGGLVQAGGSLRLSCAASGRIIRYYAMGWYRQAPGKEREFVATISSGGSTNYADSVKGRFTISRDNAKNTVYLQMNSLKPEDTAVYYCNRVYRRHVWGQGTQVTVSS | high polyreactivity
QVQLVESGGGLVQAGGSLRLSCAASGRIFHYNAMGWYRQAPGKERELVARITWTGGSTYYADSVKGRFTISRDNAKNTVYLQMNSLKPEDNAVYYCAAKWSYTKGRYYYWGQGTQVTVSS | high polyreactivity
QVQLVESVGGLVQAGGSLRLSCAASGSTFVDYAMGWYRQAPGKERELVAAINSDGGGTYYADSVKGRFTISRDNAKNTVYLQMNSLKPEDTAVYYCNVEYVDYYAQRYGYDYWGQGTQVTLSS | low polyreactivity
QVQLVESGGGLVQAGGSLRLSCAASGRIFRGYAMGWYRQAPGKERELVAVISYSGTRTYYADSVKGRFTISRDNAKNTVYLQMNSLKPEDTAVYYCNARANGFKDGYWGQGTQVTVSS | high polyreactivity
QVQLVESGGGLVQAGGSLRLICAASGRIFYNNAMGWYRQARGKERELVAGISRSSGRTYYADSVTGRFTISRDNAKNTGYLQMNSLKPVDTAVYYCAADWHYRSTARRMGYWGQGTQVTVSS | high polyreactivity
QVQLVESGGGLVQAGGSLRLSCAASGSIFPVYAMGWYRQSPGKERELVADITYTTGSTYYADSVKGRFTISRDNAKNTVYLQMNSLKPEDSAVYYCAKDFGFQSDSWGQGTQVTVSS | low polyreactivity
QVQLVESGGGLVQAGGSLRLSCAASGSTFRYYAMGWYRQAPGKERELVAAIRSGGGTYYADSVKGRFTISRDNAKTTVYLQMNSLKPEDTAVYYCAARSYSRRVSYYYWGQGTQVTVSS | high polyreactivity
QVQLVESGGGLVQAGGTLRLSCAASGSTFLTNAMGWNRPAPGKERELVAAIRTSGGSTYYADSVKGRFTISRDNAKNTFYVLMNSLKPEDTAVYYCAASYLRRRFSEYYYWGQGTQVTVSS | high polyreactivity
QVQLVESGGGLVQAGGSLRLSCAASGSIFKYYTRGWYRQAPGKERELVAAISGSGGTTYYADSVKGRFTISRDNAKNTVYLQMNSLKPEDTAVYYCATAYYRAFRGDYWGQGTQVTVSS | high polyreactivity
QVQLVESGGGLVQAGGSLRLSCAASGRTFNQYAMGWYRQAPGKERELVAAISRRTGRTYYADSVKGRFTISRDNAKNTVYLQMNSLKQEDTAVYYCAAGFTYLNYTPWYRFNYWGQGTQVTVSS | high polyreactivity
QVQLVESGGALVQAGGSLRLSCAASGFTFAFYAMGWYRQAPGKERELVAAISSRGGSTYYADSVKGRFTISRDNAKITVYLQMNSLKPEDTAVYYCAARGYYSVVEYYYWGQGTQVTVSS | high polyreactivity
QVQLVESGGGLVQAGGSLRLSCAASGSIFGSNAMGWYRQAPGKERELVAAISYRGGSTYYADSVKGRFTISRDNAKNTVYLQMNSLKPEDTAFYYCAKVSSYKPYDYWGLGTQVTVSS | low polyreactivity
QVQLVESGAGLVQAGGSLRLSCAASGSIFNYYAMVWYRQAPGKERELFAGITTSGGSTYYADSVKGSFTISRDNAKNSVYLQMKSLKPVDTAVYYCGAYDHISSTYFLDDSWGQGTQVTVSS | low polyreactivity
QVQLGESGGRLVQAGGSLRLSCAASGSTFPTNAMGWSRQGPGKERELVAAITSTGSTYADSVKGRYTISRDNVKNTVYLQMNSVKPEDTAVYYCAADTQWTTPYDYWGQGTQVTVSS | low polyreactivity
QVQLVESGGGLVQAGGSLRLSCAASGIIFSAYAMGWYRQPPGKERELVAVIDSDGDGTYYADSVKGRFTISRDNAKNTVYLQMNSLKPEDTAVYYCAADYEYTRVEGWFIGFDEYGYWGQGTQVTVSS | low polyreactivity
QVHLVETGGGLVQAGGSLRLSCAASGSIFSSYHMVWYRQAPGKERELVASISSGGSTNYADSVKGRFTISRDNAKNTVYLHMNSLNPEVTAVYYCNVDLYNWRGDSTGYDYWGQGTQVTVSS | low polyreactivity
QVQLVESGGALVQAGGSLRLSCAASGLIFYKYAMGWYRQAPGKERELVASISTGGGSTYYADSVKGRFTISRDNAKNTVYLQMNSLKPEDTAVYYCAARWWRRFRGSHSLYDYWGQGTLVTVSS | high polyreactivity
